For 4 molecules, A450 results are on record in patent US20040110930A1.

Experiment [1] has as its target 38C13 scFv protein. The experiment in a line: ELISA, coated 38C13 scFv 5 ug/ml; 0.049 ng Fab; background subtracted.
Experiment [2] has as its target 38C13 scFv protein. The experiment can be described thus: ELISA, coated 38C13 scFv 5 ug/ml; 0.098 ng Fab; background subtracted. (An ELISA detects its analyte on a solid surface through an enzyme-linked reagent.)
Experiment [3] addresses 38C13 scFv protein. The experiment in a line: ELISA, coated 38C13 scFv 5 ug/ml; 0.195 ng Fab; background subtracted.
Experiment [4] deals with 38C13 scFv protein. The experiment can be described thus: ELISA, coated 38C13 scFv 5 ug/ml; 0.391 ng Fab; background subtracted.
The target in experiment [5] is 38C13 scFv protein. The experiment can be described thus: ELISA, coated 38C13 scFv 5 ug/ml; 0.781 ng Fab; background subtracted.
Experiment [6] addresses 38C13 scFv protein. The experiment can be described thus: ELISA, coated 38C13 scFv 5 ug/ml; 1.563 ng Fab; background subtracted.
Experiment [7] addresses 38C13 scFv protein. The experiment can be described thus: ELISA, coated 38C13 scFv 5 ug/ml; 3.125 ng Fab; background subtracted.
Experiment [8] deals with 38C13 scFv protein. The experiment in a line: ELISA, coated 38C13 scFv 5 ug/ml; 6.250 ng Fab; background subtracted.
Experiment [9] concerns the target 38C13 scFv protein. The experiment can be described thus: ELISA, coated 38C13 scFv 5 ug/ml; 12.500 ng Fab; background subtracted.
The target of experiment [10] is 38C13 scFv protein. The experiment in a line: ELISA, coated 38C13 scFv 5 ug/ml; 25.000 ng Fab; background subtracted.
Experiment [11] has as its target 38C13 scFv protein. The experiment in a line: ELISA, coated 38C13 scFv 5 ug/ml; 50.000 ng Fab; background subtracted.
Experiment [12] deals with 38C13 scFv protein. The experiment can be described thus: ELISA, coated 38C13 scFv 5 ug/ml; 0.146 ng MAb; background subtracted.
Experiment [13] has as its target 38C13 scFv protein. The experiment can be described thus: ELISA, coated 38C13 scFv 5 ug/ml; 0.293 ng MAb; background subtracted.
In experiment [14] the target is 38C13 scFv protein. The experiment can be described thus: ELISA, coated 38C13 scFv 5 ug/ml; 0.586 ng MAb; background subtracted.
Experiment [15] deals with 38C13 scFv protein. The experiment can be described thus: ELISA, coated 38C13 scFv 5 ug/ml; 1.172 ng MAb; background subtracted.
The target in experiment [16] is 38C13 scFv protein. The experiment in a line: ELISA, coated 38C13 scFv 5 ug/ml; 2.344 ng MAb; background subtracted.
The target of experiment [17] is 38C13 scFv protein. The experiment can be described thus: ELISA, coated 38C13 scFv 5 ug/ml; 4.688 ng MAb; background subtracted.
Experiment [18] has as its target 38C13 scFv protein. The experiment can be described thus: ELISA, coated 38C13 scFv 5 ug/ml; 9.375 ng MAb; background subtracted.
Experiment [19] deals with 38C13 scFv protein. The experiment in a line: ELISA, coated 38C13 scFv 5 ug/ml; 18.750 ng MAb; background subtracted.
In experiment [20] the target is 38C13 scFv protein. The experiment in a line: ELISA, coated 38C13 scFv 5 ug/ml; 37.500 ng MAb; background subtracted.
For experiment [21], the target named is 38C13 scFv protein. The experiment can be described thus: ELISA, coated 38C13 scFv 5 ug/ml; 75.000 ng MAb; background subtracted.
For experiment [22], the target named is 38C13 scFv protein. The experiment in a line: ELISA, coated 38C13 scFv 5 ug/ml; 150.000 ng MAb; background subtracted.

Where “and” joins values, the source holds several entries; their conditions need not be identical. Equal values may be shown once.

B1: control S1C5 Fab produced from mouse ascites MAb using the ImmunoPure Fab Kit (Fab, V domains shown)
VH: EVKLEQSGAELVKPGASVKISCKASGYTFTDHVIHWVKQRPEQGLEWIGFISPGNGDIRYNEKFKDKATLTADKSSSTAYMQLNSLTSEDSAVYFCKRSFYYYDDNYGDYWGQGTTLTVSS
VL: QIVLTQSPAIMSASLGERVTMTCTASSSVSSSYFHWYQQKPGSSPKLWIYTTSNLASGVPARFSGSGSGTSYSLTISSMEAEDAATYYCHQYHRSPLTFGAGTKLELKR
As for B1, the A450 with 38C13 scFv protein [1] is 0.008 A450 and 0.003 A450; with 38C13 scFv protein [2], 0.009 A450 and 0.018 A450; with 38C13 scFv protein [3], 0.03 A450 and 0.023 A450; with 38C13 scFv protein [4], 0.047 A450 and 0.05 A450; with 38C13 scFv protein [5], 0.095 A450 and 0.094 A450; with 38C13 scFv protein [6], 0.168 A450 and 0.171 A450. The A450 was 0.273 A450 and 0.266 A450 with 38C13 scFv protein [7]; 0.346 A450 and 0.363 A450 with 38C13 scFv protein [8]; 0.46 A450 and 0.465 A450 with 38C13 scFv protein [9]; 0.498 A450 and 0.51 A450 in the experiment with 38C13 scFv protein [10]; 0.481 A450 and 0.516 A450 with 38C13 scFv protein [11].

B2: pLSBC1798 produced S1C5 MAb (antibody, V domains shown)
VH: B1 VH
VL: B1 VL
Consider B2, for which the A450 with 38C13 scFv protein [12] was 0.007 A450 and 0.004 A450; with 38C13 scFv protein [13], 0.014 A450 and 0.015 A450; in the experiment with 38C13 scFv protein [14], 0.03 A450 and 0.029 A450; with 38C13 scFv protein [15], 0.061 A450; with 38C13 scFv protein [16], 0.106 A450 and 0.113 A450; with 38C13 scFv protein [17], 0.198 A450 and 0.194 A450. The A450 is 0.295 A450 and 0.307 A450 with 38C13 scFv protein [18]; 0.39 A450 and 0.397 A450 with 38C13 scFv protein [19]; 0.477 A450 and 0.482 A450 with 38C13 scFv protein [20]; 0.514 A450 and 0.517 A450 with 38C13 scFv protein [21]; 0.521 A450 and 0.52 A450 with 38C13 scFv protein [22].

B3: pLSBC1792 produced S1C5 Fab (Fab, V domains shown)
VH: B1 VH
VL: B1 VL
On to B3, for which the A450 was 0.01 A450 and 0.011 A450 with 38C13 scFv protein [1]; 0.025 A450 and 0.019 A450 with 38C13 scFv protein [2]; 0.049 A450 and 0.041 A450 in the experiment with 38C13 scFv protein [3]; 0.09 A450 and 0.094 A450 with 38C13 scFv protein [4]; 0.168 A450 and 0.154 A450 with 38C13 scFv protein [5]; 0.263 A450 and 0.247 A450 in the experiment with 38C13 scFv protein [6]. Also, the A450 is 0.366 A450 and 0.35 A450 with 38C13 scFv protein [7]; 0.468 A450 and 0.449 A450 with 38C13 scFv protein [8]; 0.487 A450 and 0.485 A450 in the experiment with 38C13 scFv protein [9]; 0.521 A450 and 0.519 A450 with 38C13 scFv protein [10]; 0.524 A450 and 0.504 A450 with 38C13 scFv protein [11].

B4: Control S1C5 MAb from mouse ascites fluid (antibody, V domains shown)
VH: B1 VH
VL: B1 VL
For B4, the A450 is 0.012 A450 and 0.01 A450 with 38C13 scFv protein [12]; 0.025 A450 and 0.023 A450 with 38C13 scFv protein [13]; 0.053 A450 and 0.047 A450 in the experiment with 38C13 scFv protein [14]; 0.105 A450 and 0.096 A450 with 38C13 scFv protein [15]; 0.18 A450 and 0.179 A450 in the experiment with 38C13 scFv protein [16]; 0.283 A450 and 0.284 A450 in the experiment with 38C13 scFv protein [17]. The A450 in the experiment with 38C13 scFv protein [18] is 0.39 A450 and 0.395 A450; with 38C13 scFv protein [19], 0.476 A450 and 0.429 A450; with 38C13 scFv protein [20] it was 0.443 A450 and 0.497 A450; with 38C13 scFv protein [21], 0.532 A450 and 0.515 A450; in the experiment with 38C13 scFv protein [22], 0.517 A450 and 0.538 A450.
